As a reminder, the stoichiometry N is the number of molecules, sites or subunits per partner or assembly.

The data set deals with the molecule itself. The data set is described as follows: dynamic light scattering; 5–83 µM GLP-1(7-37); 25 °C; 25 mM Tris-HCl, 140 mM NaCl, 4.9 mM KCl, 2.5 mM CaCl2, 1 mM MgCl2, pH 7.4; degree of multimerization MWRh/MWm.

Take HAEGTFTSDVSSYLEGQAAKEFIAWLVKGRG (peptide, UniProt P01275 98-128, looked up, also called GLP-1(7-37); GLP-1) [glucagon-like peptide 1, residues 7-37]: the “stoichiometry N” value is over 210.
